# Laboratory results as given in patent US20240317847A1 (Bayer, published 2024).
# T1: human IL-11 (Invigate, e.g., lot #C121021-19) (human, UniProt P20809 22-199)
# T1 construct: Bought protein; also called hIL-11; hIL11
# T1 sequence: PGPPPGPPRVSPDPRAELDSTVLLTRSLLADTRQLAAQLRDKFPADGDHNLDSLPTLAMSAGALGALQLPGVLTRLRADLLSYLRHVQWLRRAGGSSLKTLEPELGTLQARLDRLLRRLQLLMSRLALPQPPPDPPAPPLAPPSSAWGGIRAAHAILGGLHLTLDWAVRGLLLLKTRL
# T2: murine IL-11 (Invigate, e.g., lot #C210819-09) (mouse, UniProt P47873 22-199)
# T2 construct: Bought protein; biotinylated where captured on streptavidin plates; also called mIL-11; mIL11
# T2 sequence: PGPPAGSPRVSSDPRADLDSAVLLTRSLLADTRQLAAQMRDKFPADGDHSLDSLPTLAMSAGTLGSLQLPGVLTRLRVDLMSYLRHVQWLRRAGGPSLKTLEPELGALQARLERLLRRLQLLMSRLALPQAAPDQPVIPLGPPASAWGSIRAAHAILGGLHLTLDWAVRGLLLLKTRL
# Columns and labels:
# [1] = target: T1, human IL-11 (Invigate, e.g., lot …); assay: Di-complex ELISA: biotinylated human IL-11 on streptavidin plate, antibody titrated against 2 nM canine IL11RA-human-Fc (competitor)
# Experimental: (§1) In the Di-complex ELISA format anti IL-11 antibodies are tested for the ability to interfere with the formation of complexes consisting of immobilized murine IL-11 (Invigate, e.g., lot #C210819-09) or human IL-11 (Invigate, e.g., lot #C121021-19), and murine IL11RA-Fc fusion proteins or canine IL11RA-human-Fc fusion protein (FIG. 17a, b).
# (§2) The assay is performed using streptavidin coated microtiter plates (Greiner bio-one, #781997). In a first step, 10 nM biotinylated mouse IL-11 (Invigate, Germany, e.g., lot #C210819-09) or human IL-11 (Invigate, Germany, e.g., lot #C121021-19) is coated in 25 μl PBS on the plate at 4° C. overnight. Next day, the plate is washed three times with 50 μl PBST and then blocked with 50 μl SmartBlock (Candor, #113125) for one hour at room temperature (RT). After additional three washes with PBST, 25 μl of a mixture of the murine anti IL-11 antibody and recombinant canine IL11RA-Fc fusion protein (Sino Biological, #70078-D02H) in PBS-T, 10% Smartblock are added simultaneously to the plate and incubated for one hour at RT. […] After three additional washes with PBS-T, 25 μl anti-human-POD (Sigma, #A0170) in PBS-T, 10% Smartblock is added and incubated for 1 hour at RT. After a final three washes with PBS-T, 25 μl AmplexRed (Fisher Scientific, A12222), 1/1000 in PBS, 0,003% H₂O₂, is added as substrate and incubated for 15 min at RT in the dark. Then, the fluorescence is measured with a plate reader at 535/595 nm. Signals from dose responses were used to calculate IC50 values (GraphPad Prism). Efficacy was calculated as [(signal measured at lowest antibody concentration−signal measured at the highest antibody concentration)×100] divided by (signal measured at lowest antibody concentration−signal measured in the absence of IL11Ra).
# [2] = target: T2, murine IL-11 (Invigate, e.g., lot …); assay: Di-complex ELISA: biotinylated murine IL-11 on streptavidin plate, antibody titrated against 2 nM canine IL11RA-human-Fc (competitor)
# Experimental: as §1, §2
# [3] = target: T2, murine IL-11 (Invigate, e.g., lot …); assay: cell-based or functional assay
# [4] = target: T1, human IL-11 (Invigate, e.g., lot …); assay: cell-based or functional assay
# [5] = target: T2, murine IL-11 (Invigate, e.g., lot …); assay: Tri-complex ELISA: antibody titrated against 8 nM murine IL-11, 2 nM murine gp130-human-Fc and 2 nM murine IL11RA-murine-Fc
# Experimental: (§3) In the Tri-complex ELISA format IL-11 antibodies are tested for their ability to inhibit the formation of a complex consisting of murine or human gp130-Fc fusion protein, with murine or human IL-11, and a murine IL11RA-Fc fusion protein. The assay format was adapted according to FIG. 18 (a, b), depending on whether murine or human IL-11 IgG antibodies were tested.
# (§4) The assay was performed using High Binding microtiter plates (Greiner, #781077). In a first step, 25 μl of goat anti human IgG (Sigma, #12136), diluted 1:1000 in coating buffer (Candor, #121125) was coated on the plate at 4° C. overnight. Next day, the plate was washed one time with 50 μl PBST and then blocked with 50 μl SmartBlock (Candor, #113125) for one hour at room temperature (RT). […] After three additional washes of the coated and blocked microtiter plate with PBS-T, 25 μl of each mixture were added and the assay plate was incubated for one hour at room temperature. After three additional washes, anti-mouse-gp130 biotinylated antibody (R&D, #BAF468) or anti-human gp130 biotinylated antibody (R&D, #BAF228), both 1:1000 in 10% SmartBlock PBS-T, was added and incubated for 1 hour at RT. After three additional washes, a Streptavidin-Peroxidase conjugate (Sigma, #S5512) 1:1000 in SmartBlock PBS-T was added and incubated for one hour at room temperature. After a final three washes, AmplexRed (Fisher Scientific, A12222), 1/1000 in PBS, 0,003% H₂O₂, was added as substrate and incubated for 15 min at RT in the dark. Then, the fluorescence was measured with a plate reader at 535/595 nm. Signals from dose responses were used to calculate IC50 values using GraphPad Prism software.
# [6] = target: T1, human IL-11 (Invigate, e.g., lot …); assay: Tri-complex ELISA: antibody titrated against 8 nM human IL-11, 2 nM human gp130-human-Fc and 2 nM murine IL11RA-murine-Fc
# Experimental: as §3, §4
# [7] = target: T2, murine IL-11 (Invigate, e.g., lot …); assay: SPR, Biacore T200, 25 C; antibody captured via anti-mouse Fc, IL-11 as analyte, 1:1 Langmuir fit
# Experimental: (§5) Antibodies were captured via anti-mouse Fc IgGs (“Mouse antibody capture kit, Order No. BR100383, Cytiva) covalently amine coupled to a Series S CM5 sensor chip (Cytiva). The amine coupling was carried out according to the manufacturer's instructions using 1-ethyl-3-(3-dimethylaminopropyl) carbodiimide hydrochloride (EDC), N-hydroxysuccinimide (NHS) and ethanolamine HCl, pH 8.5 (“Amine Coupling Kit” BR-1000-50, Cytiva.). Human IL-11 (Invigate, e.g., lot #C121021-19), and murine IL-11 (Invigate, e.g., lot #C210819-09) were used as analytes. […] Based on that experiment an IL-11 concentration range was chosen to optimally determine kinetics and affinity of anti-IL-11 antibodies in multicycle kinetics mode. The sensor surface was regenerated with glycine pH 1.7 after each antigen injection. Obtained sensorgrams were double referenced (subtraction of reference flow cell signal and buffer injection) and were fitted to a 1:1 Langmuir binding model to derive kinetic data using the Biacore T200 Evaluation software or the Biacore Insight software.
# [8] = target: T1, human IL-11 (Invigate, e.g., lot …); assay: as above
# Experimental: as §5
Efficacy (%) [1],IC50 [1],Efficacy (%) [2],IC50 [2],"Efficacy (%), Stat3 reporter gene assay, mouse Il11ra, 3.13 nM mIL-11 [3]","IC50 [M], Stat3 reporter gene assay, HEK 293F transfected with mouse Il11ra, 3.13 nM mIL-11 [3]","Efficacy (%), Stat3 reporter gene assay, human IL11RA, 0.78 nM hIL-11 [4]","IC50 [M], Stat3 reporter gene assay, HEK 293F transfected with human IL11RA, 0.78 nM hIL-11 [4]",Efficacy (%) [5],IC50 [5],Efficacy (%) [6],IC50 [6],Kd [7],Kd [8],Binder
42%,54 nM,68.9%,12 nM,60%,9.5e-08 M,54.3%,1.1e-07 M,36.3%,170 nM,60.6%,92 nM,10 nM,53 nM,"TPP-18063 (antibody, mouse IgG1, V domains shown, mIgG1, Lambda) VH: EVQLLESGGGLVQPGGSLRLSCAASGFTFSDYYMSWIRQAPGKGLEWVSGINWNGGSTGYADSVKGRFTISRDNSKNTLYLQMNSLRAEDTAVYYCATWDGPFDYWGQGTLVTVSS VL: QSVLTQPPSASGTPGQRVTISCTGSSSNIGAGYDVHWYQQLPGTAPKLLIYYDDLLPSGVPDRFSGSKSGTSASLAISGLRSEDEADYYCQSYDSSLGGSVFGGGTKLTVLG"
19.6%,–,72.7%,2.5 nM,84.1%,2.67e-09 M,20.7%,4.83e-09 M,37.1%,66 nM,7.3%,–,0.72 nM,48 nM,"TPP-18068 (antibody, mouse IgG1, mIgG1, Lambda) heavy: EVQLLESGGGLVQPGGSLRLSCAASGFTFSSYGMHWVRQAPGKGLEWVSVISYDGSYKYYADSVKGRFTISRDNSKNTLYLQMNSLRAEDTAVYYCAAGVPDYWGQGTLVTVSSAKTTPPSVYPLAPGSAAQTNSMVTLGCLVKGYFPEPVTVTWNSGSLSSGVHTFPAVLQSDLYTLSSSVTVPSSTWPSETVTCNVAHPASSTKVDKKIVPRDCGCKPCICTVPEVSSVFIFPPKPKDVLTITLTPKVTCVVVDISKDDPEVQFSWFVDDVEVHTAQTQPREEQFNSTFRSVSELPIMHQDWLNGKEFKCRVNSAAFPAPIEKTISKTKGRPKAPQVYTIPPPKEQMAKDKVSLTCMITDFFPEDITVEWQWNGQPAENYKNTQPIMDTDGSYFVYSKLNVQKSNWEAGNTFTCSVLHEGLHNHHTEKSLSHSPGK light: QSVLTQPPSASGTPGQRVTISCTGSSSNIGAGYDVHWYQQLPGTAPKLLIYSNNERPSGVPDRFSGSKSGTSASLAISGLRSEDEADYYCAAWDDSLNGPVFGGGTKLTVLGQPKSSPSVTLFPPSSEELETNKATLVCTITDFYPGVVTVDWKVDGTPVTQGMETTQPSKQSNNKYMASSYLTLTARAWERHSSYSCQVTHEGHTVEKSLSRADCS"
